Experimental data reported in publication doi:10.1101/2023.12.07.570558 (bioRxiv, 2023).
Positions count from the first letter of the chain named.

T1: His-tagged SIRT1 (bacterially expressed) (human, UniProt Q96EB6)
T1 sequence: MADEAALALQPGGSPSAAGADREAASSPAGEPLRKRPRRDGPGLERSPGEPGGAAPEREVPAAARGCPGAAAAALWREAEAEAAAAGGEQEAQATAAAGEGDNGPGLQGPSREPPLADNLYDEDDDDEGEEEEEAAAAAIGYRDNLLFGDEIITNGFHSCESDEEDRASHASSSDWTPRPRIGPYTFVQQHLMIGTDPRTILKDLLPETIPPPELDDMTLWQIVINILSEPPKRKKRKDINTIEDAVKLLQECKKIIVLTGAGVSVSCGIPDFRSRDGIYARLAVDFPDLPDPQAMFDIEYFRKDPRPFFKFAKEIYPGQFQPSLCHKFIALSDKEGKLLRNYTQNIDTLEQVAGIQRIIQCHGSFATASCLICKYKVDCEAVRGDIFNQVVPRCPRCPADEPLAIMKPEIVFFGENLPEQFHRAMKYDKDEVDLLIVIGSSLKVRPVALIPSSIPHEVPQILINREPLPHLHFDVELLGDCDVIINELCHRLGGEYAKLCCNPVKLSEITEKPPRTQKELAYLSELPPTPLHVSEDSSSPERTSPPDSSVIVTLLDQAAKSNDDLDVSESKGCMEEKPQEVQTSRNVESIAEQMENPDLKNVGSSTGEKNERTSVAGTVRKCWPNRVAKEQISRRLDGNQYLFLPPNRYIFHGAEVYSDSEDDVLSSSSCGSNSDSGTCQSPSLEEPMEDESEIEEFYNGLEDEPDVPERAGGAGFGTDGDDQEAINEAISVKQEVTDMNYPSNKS

B1: His-tagged TULP3 (bacterially expressed) (natural protein)
chain: MEASRCRLSPSGDSVFHEEMMKMRQAKLDYQRLLLEKRQRKKRLEPFMVQPNPEARLRRAKPRASDEQTPLVNCHTPHSNVILHGIDGPAAVLKPDEVHAPSVSSSVVEEDAENTVDTASKPGLQERLQKHDISESVNFDEETDGISQSACLERPNSASSQNSTDTGTSGSATAAQPADNLLGDIDDLEDFVYSPAPQGVTVRCRIIRDKRGMDRGLFPTYYMYLEKEENQKIFLLAARKRKKSKTANYLISIDPVDLSREGESYVGKLRSNLMGTKFTVYDRGICPMKGRGLVGAAHTRQELAAISYETNVLGFKGPRKMSVIIPGMTLNHKQIPYQPQNNHDSLLSRWQNRTMENLVELHNKAPVWNSDTQSYVLNFRGRVTQASVKNFQIVHKNDPDYIVMQFGRVADDVFTLDYNYPLCAVQAFGIGLSSFDSKLACE
B2: His-tagged TULP3-4G (natural protein)
chain: B1 chain with Y193G, P195G, K333G, P336G

Molecular target: T1, His-tagged SIRT1 (bacterially expressed)
Test: SEC

Row | Binder | binding result
1 | B1 | binds
2 | B2 | binds
